Experimental data from patent publication US12006519B2, “Polymerase mutants and use with 3′-OH unblocked reversible terminators” (Agilent Technologies, Inc., priority 2021, dated 2024).
“Also recorded” adds a separate entry of the source.

Experiments:
Type in all cases: biochemical
[1] = test system: Lightning Terminator-A (LTA); assay: Plate-based single-base extension assay, incorporation of LTA
Text: This example used saturation mutagenesis at positions 486 and 494 in Pfu D141A/E143A to create additional mutant polymerases. Bacterial extracts were screened in a plate-based single-base extension assay employing Lightning Terminator-A (LTA). Positive clones producing the highest fluorescent signals were sequenced to identify the amino acid replacement. […] Selected lysates, based on screening results, were submitted for sequencing, and an amino acid identification was made based on the selections.
FIG. 3 illustrates the saturation of position 486 in a Pfu polymerase. The QuikChange kit was used with degenerate NDT codon primers to create a library of Pfu A486 mutants. A NDT codon comprises an A, C, G, or T at the first position, an A, G, or T at the second position, and a T at the third position, thereby introducing variability into the primer. The 12 possible NDT codons represent 12 amino acids (Phe, Leu, Ile, Val, Tyr, His, Asn, Asp, Cys, Arg, Ser, and Gly). Heat-clarified extracts were prepared from 32 randomly selected colonies. Extracts were screened for incorporation of LTA in a microtiter plate assay employing an immobilized dsDNA substrate. […]
In this example, additional mutant polymerases were derived from Pfu polymerase. […] After washing and UV cleavage (to minimize dye quenching effects), plates were read and fluorescent signals compared to Pfu controls. […]

[2] = test system: LTA-2; assay: Template-independent incorporation of LTA-2, LTU-2, LTG-2, LTC-2 to priming strands
Experimental: The template-independent DNA synthesis reactions employed 7.5 U TdT (Promega) or 180 nM (3×over primer) Pfu26 (D141A/E143A/A486L/Y546H/K477W/L409Y) or Pfu48 (D141A/E143A/A486R/Y546H/K477W/L409Y). Varying concentrations of dATP were added to 2 μM (TdT) or 60 nM (Pfu) T7 FOR primer (6′Fam […]) (SEQ ID NO:6) in duplicate reactions containing 1×TdT buffer with CoCl2(Promega) or 1×ThermoPol buffer (NEB). Reactions were incubated for 30 min. at 37° C. (TdT) or 60° C. (Pfu), and then inactivated with heat (TdT; 10 min. at 70° C.) or EDTA (1 ul 500 uM EDTA). Reaction products were exposed to UV using a Stratalinker (15-watt bulbs, […], 10 min). Reactions were diluted in water (TdT, 1:333; Pfu, 1:10) and 1 μl (TdT) or 0.5 μl (Pfu) aliquots were brought up to 10 μl with HiDI/LIZ 120 Size Standard. Products were heated at 95° C. for 5 min., cooled on ice for 2 min., and then analyzed on an ABI 3500 capillary electrophoresis system ([…] capillary, filter set #5, assay=GE5 LIZ120).
In this example, primer extension was carried out with LTA-2 (FIG. 1F) as a Rp+Sp racemic mixture of α-thiotriphosphate, using the conditions described in Example 7.
In further experiments, single-base extension reactions (10 ul) were performed with an equimolar mixture (3 uM each) of two single-stranded oligommcleotides:
Both were labeled with Fam but distinguishable by their lengths using capillary electrophoresis. Primer extension reactions were performed using the following three Pfu mutants at a concentration of 18 nM polymerase: • Pfu10: Pfu polymerase with D141A/E143A/A486L/Y546H/K477W mutations (SEQ ID NO:2) • Pfu26: Pfu polymerase with D141A/E143A/A486L/Y546H/K477W/L409Y mutations (SEQ ID NO:4) • Pfu48: Pfu polymerase with D141A/E143A/A486R/Y546H/K477W/L409Y mutations (SEQ ID NO:5) The extension reactions also employed individual αS-modified LTs in Rp+Sp racemic mixture (namely, LTA-2, LTU-2, LTG-2, and LTC-2) at final concentrations of 5 uM. LTU-2, LTG-2, and LTC-2 are all C7 or C5-hydroxymethyl-a-tert-butyl-2-nitrobenzyl modified reversible terminators like LTA-2, with uracil, guanine, and cytosine in place of adenine. […] Reactions were incubated, stopped, UV-treated, and analyzed as described in Example 7.
(§1) Primer extensions were carried out in duplicate 25 ul reactions containing 7.5 U calf thymus TdT, 1×Promega TdT buffer (with CoCl2), varying concentrations of LTA-1 (100 uM, 50 uM, 10 uM, 5 uM, or 1 uM), and either 2 uM (FIG. 11A to 11C) or 80 nM (FIG. 11D to 11F) of a priming strand (Fam-labeled T7 F primer (6Fam […]), SEQ ID NO:8). Controls were performed without the addition of a polymerase. Primer extensions were also carried out in reactions containing the Pfu26 mutant polymerase, 60 nM of the priming strand, and various concentrations (10 μM or 5 μM or 1 μM) of LTA-1 or LTA-2.

[3] = test system: LTA-1; assay: Template-independent incorporation of LTA-1 to a priming strand
Experimental: This example tested the addition of a 3′-OH unblocked reversible terminator (LTA-1, shown in FIG. 1E, or LTA-2, shown in FIG. 1F) to the 3′ end of a single-stranded priming strand. The extension reaction was performed with 2 uM or 80 nM of a priming strand and varying concentrations (100/50/10/5/1 μM) of the reversible terminator. The performance of the Pfu26 polymerase was compared to TdT polymerase.
as §1
Reactions were incubated at 37° C. for 30 min., and then heat-killed for 10 min. at 70° C. Reaction products were split in half, and one-half was treated with UV as described in Example 7. Reactions were then diluted 1:333 (2 uM primer) or 1:13 (80 nM primer) in water, and 0.5 ul portions were analyzed by capillary electrophoresis using the conditions provided in Example 7.

B1: A486R: Pfu D141A/E143A with A486R (protein)
chain: MILDVDYITEEGKPVIRLFKKENGKFKIEHDRTFRPYIYALLRDDSKIEEVKKITGERHGKIVRIVDVEKVEKKFLGKPITVWKLYLEHPQDVPTIREKVREHPAVVDIFEYDIPFAKRYLIDKGLIPMEGEEELKILAFAIATLYHEGEEFGKGPIIMISYADENEAKVITWKNIDLPYVEVVSSEREMIKRFLRIIREKDPDIIVTYNGDSFDFPYLAKRAEKLGIKLTIGRDGSEPKMQRIGDMTAVEVKGRIHFDLYHVITRTINLPTYTLEAVYEAIFGKPKEKVYADEIAKAWESGENLERVAKYSMEDAKATYELGKEFLPMEIQLSRLVGQPLWDVSRSSTGNLVEWFLLRKAYERNEVAPNKPSEEEYQRRLRESYTGGFVKEPEKGLWENIVYLDFRAYYPSIIITHNVSPDTLNLEGCKNYDIAPQVGHKFCKDIPGFIPSLLGHLLEERQKIKTKMKETQDPIEWILLDYRQKRIKLLANSFYGYYGYAKARWYCKECAESVTAWGRKYIELVWKELEEKFGFKVLYIDTDGLHATIPGGESEEIKKKALEFVKYINSKLPGLLELEYEGFYKRGFFVTKKRYAVIDEEGKVITRGLEIVRRDWSEIAKETQARVLETILKHGDVEEAVRIVKEVIQKLANYEIPPEKLAIYEQITRPLHEYKAIGPHVAVAKKLAAKGVKIKPGMVIGYIVLRGDGPISNRAILAEEYDPKKHKYDAEYYIENQVLPAVLRILEGFGYRKEDLRYQKTRQVGLTSWLNIKKS
modifications: Mutant of Pyrococcus furiosus Polymerase
B1 was tested, and the “Incorporation of Lightning Terminators (in words)” value ([1]; Example 5, saturation mutagenesis in Pfu D141A/E143A, bacterial extracts, LTA) was “improve incorporation of Lightning Terminators” and the “Incorporation signals compared to the Pfu A486L control (Pfu10)” value ([1]; Example 6, LTA and/or LTC) was “superior incorporation signals”.

B2: Pfu48: Pfu D141A/E143A/A486R/Y546H/K477W/L409Y, SEQ ID NO:5 (protein)
chain: MILDVDYITEEGKPVIRLFKKENGKFKIEHDRTFRPYIYALLRDDSKIEEVKKITGERHGKIVRIVDVEKVEKKFLGKPITVWKLYLEHPQDVPTIREKVREHPAVVDIFEYDIPFAKRYLIDKGLIPMEGEEELKILAFAIATLYHEGEEFGKGPIIMISYADENEAKVITWKNIDLPYVEVVSSEREMIKRFLRIIREKDPDIIVTYNGDSFDFPYLAKRAEKLGIKLTIGRDGSEPKMQRIGDMTAVEVKGRIHFDLYHVITRTINLPTYTLEAVYEAIFGKPKEKVYADEIAKAWESGENLERVAKYSMEDAKATYELGKEFLPMEIQLSRLVGQPLWDVSRSSTGNLVEWFLLRKAYERNEVAPNKPSEEEYQRRLRESYTGGFVKEPEKGLWENIVYLDFRAYYPSIIITHNVSPDTLNLEGCKNYDIAPQVGHKFCKDIPGFIPSLLGHLLEERQKIKTKMKETQDPIEWILLDYRQKRIKLLANSFYGYYGYAKARWYCKECAESVTAWGRKYIELVWKELEEKFGFKVLYIDTDGLHATIPGGESEEIKKKALEFVKYINSKLPGLLELEYEGFYKRGFFVTKKRYAVIDEEGKVITRGLEIVRRDWSEIAKETQARVLETILKHGDVEEAVRIVKEVIQKLANYEIPPEKLAIYEQITRPLHEYKAIGPHVAVAKKLAAKGVKIKPGMVIGYIVLRGDGPISNRAILAEEYDPKKHKYDAEYYIENQVLPAVLRILEGFGYRKEDLRYQKTRQVGLTSWLNIKKS
modifications: Mutant of Pyrococcus furiosus Polymerase
B2 was tested, and the “Template-independent incorporation of LTA-2, LTU-2, LTG-2 and LTC-2 (in words)” value ([2]; 18 nM polymerase, 5 uM terminators, CE2 and T7 oligonucleotides) was “superior to Calf thymus Terminal Transferase (TdT)”.

B3: TdT: commercially available preparation of calf thymus terminal deoxynucleotidyl transferase (Promega) (protein, UniProt P06526 1-509, looked up)
DNA nucleotidylexotransferase: MDPLCTASSGPRKKRPRQVGASMASPPHDIKFQNLVLFILEKKMGTTRRNFLMELARRKGFRVENELSDSVTHIVAENNSGSEVLEWLQVQNIRASSQLELLDVSWLIESMGAGKPVEITGKHQLVVRTDYSATPNPGFQKTPPLAVKKISQYACQRKTTLNNYNHIFTDAFEILAENSEFKENEVSYVTFMRAASVLKSLPFTIISMKDTEGIPCLGDKVKCIIEEIIEDGESSEVKAVLNDERYQSFKLFTSVFGVGLKTSEKWFRMGFRSLSKIMSDKTLKFTKMQKAGFLYYEDLVSCVTRAEAEAVGVLVKEAVWAFLPDAFVTMTGGFRRGKKIGHDVDFLITSPGSAEDEEQLLPKVINLWEKKGLLLYYDLVESTFEKFKLPSRQVDTLDHFQKCFLILKLHHQRVDSSKSNQQEGKTWKAIRVDLVMCPYENRAFALLGWTGSRQFERDIRRYATHERKMMLDNHALYDKTKRVFLKAESEEEIFAHLGLDYIEPWERNA
B3 was tested, and the “Template-independent incorporation of LTA-2 (in words)” value ([2]; single-stranded priming strand) was “did not incorporate the LTA-2 terminator as efficiently as dATP; also recorded: failed to incorporate LTA-2”, the “Template-independent incorporation of LTA-1 (in words)” value [3] was “incorporates LTA-1 much more efficiently than the more highly substituted LTA-2” and the “Termination efficiency with LTA-1” value [3] was “poor”. For the same molecule, the “Bases incorporated in a single synthesis cycle” value ([3]; LTA-1, 80 nM primer) was greater than 3 bases and the “Bases incorporated in a single synthesis cycle” value ([3]; LTA-1, 2 uM primer) was 3 bases.
